Key:
[1] = molecular target: human VDAC1, recombinant, C-terminal His-tag, refolded in LDAO (human) (UniProt P21796); assay: competition pull-down on VDAC1-coated magnetic beads (30 uM VDAC1, 6.5 uM SOD1-G93A), anti-SOD1 immunoblot
[2] = molecular target: VDAC1 on intact mitochondria purified from NSC34 cells (mouse (NSC34 cell line)) (UniProt Q60932); assay: competition with SOD1-G93A on intact NSC34 mitochondria, fractionation, immunoblot
UniProt Q60932, sequence (Q60932 whole entry): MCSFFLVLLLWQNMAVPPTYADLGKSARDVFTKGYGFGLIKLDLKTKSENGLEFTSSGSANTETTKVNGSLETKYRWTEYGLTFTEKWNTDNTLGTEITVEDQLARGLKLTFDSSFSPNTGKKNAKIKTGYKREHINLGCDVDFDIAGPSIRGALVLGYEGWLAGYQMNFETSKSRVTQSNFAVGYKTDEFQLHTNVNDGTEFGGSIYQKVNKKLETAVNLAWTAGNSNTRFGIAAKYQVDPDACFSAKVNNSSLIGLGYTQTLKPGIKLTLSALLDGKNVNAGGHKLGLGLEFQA

UniProt P21796, sequence (P21796 other isoform, or with tags, fused parts or gaps limits assumed): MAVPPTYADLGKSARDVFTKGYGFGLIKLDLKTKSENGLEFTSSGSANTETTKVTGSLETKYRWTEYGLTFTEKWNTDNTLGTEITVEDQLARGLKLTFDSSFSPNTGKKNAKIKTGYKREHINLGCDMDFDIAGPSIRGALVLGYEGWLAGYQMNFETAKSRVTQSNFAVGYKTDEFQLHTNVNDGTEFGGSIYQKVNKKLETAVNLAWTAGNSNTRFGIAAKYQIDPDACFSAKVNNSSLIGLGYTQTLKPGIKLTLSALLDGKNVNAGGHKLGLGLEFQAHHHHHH

percent reduction of SOD1-G93A bound to VDAC1 at 10 µM NHK1 [1]: 40%
percent reduction of SOD1-G93A bound to VDAC1 at 25 µM NHK1 [1]: 80%
percent decrease of SOD1-G93A bound to mitochondria at 60 µM NHK1 [2]: 90%
Binder: IAAQLLAYYFT [synthetic peptide NHK1]
